Experimental data from article PMC2649420 (The Journal of biological chemistry, 2008).

Target: Sbi-III-IV (amino acids 150-266), domains III and IV of Sbi (S. aureus strain Mu50, UniProt Q99RL2 150-266)
Test: SPR

B1: C3a anaphylatoxin (domain or fragment)
chain: not shown
B1 showed a Kd of 19.8 µM.
